# From the nanobody polyreactivity screen of Harvey et al. (2022)
# Test: yeast display, Sf9 membrane polyspecificity reagent, FACS + sequencing; frameworks hold sequencing errors
# Outline: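 After 36–48 hours of galactose induction, yeast (Saccharomyces cerevisiae BJ5465) displaying a synthetic nanobody library were stained at 4 °C for 1 hour with 10% biotinylated, detergent-solubilized Sf9 membrane reagent. Streptavidin microbeads enriched the stained cells before FACS sorting into low and high (top ~1%) gates on anti-HA and streptavidin fluorescence. Each clone's polyreactivity label reflects its gate of origin.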
row,Sequence,polyreactivity (PSR sort gate)
1,QVQLVESGGGLVQAGGSLRLSCAASGFTFYRNDIGWYRQAPGKERELVAAITFSGGITYYADSVKGRFTISRDNAKNTVYLQMNSLKAEDTAVYYCAAEGVGAARVYQGGEYNYWGQGTQVTVSS,low polyreactivity
2,QVQLVESGGGLVQAGGSLRLSCAASGFTFYRNTMGWYRQAPGKERELVARIRSVGSTYYADSVKGRFTISRDNAKNTVFLQMNSLKREDTAVYYCAAGPVYDWRGGALRYYYWGQGTQVTVSS,high polyreactivity
3,QVQLVESGGGLVQAGGSLRLSCAASGFTFYRYAMGWYRQAPGKERELVAAISWSGGTTYYADSVKGRFTISRDNAKNTVYLQMNSLKPEDTAVYYCNARFIARSGYKVDYDYWGQGTQVTVSS,high polyreactivity
4,QVQLVESGGGLVQAGGSLRLSCAASGFTFYRYAMGWYRQAPGKERELVAAITRTGSTYYADSVKGRFTISRDNAKNTVYLQMNSLKPEDTAVYYCARRSLYFPSYGLYYWGQGTQVTVSS,high polyreactivity
5,QVQLVESGGGLVQAGGSLRLSCAASGFTFYRYAMGWYRQAPGKERELVAAITSRGTSTYYADSVKGRFTISRDNAKNTVYLQMNSLKPEDTAVYYCAVKGYRYGTRYDYWGQGTQVTVSS,high polyreactivity
6,QVQLVESGGGLVQAGGSLRLSCAASGFTFYRYAMGWYRQAPGKERELVAAITSRSGITYYADSVKGRFTISRDNAKNTVYLQMNSLKPEDTAVYYCGAYVSRSTEFDYGYWGQGTQVTVSS,high polyreactivity
7,QVQLVESGGGLVQAGGSLRLSCAASGFTFYRYGMGWYRPPPGKERELVAAINNDGTTNYADSVKGRFTISRDNAKNTVYLQLNSLKPEDTAVYYCAADYYRGRYSYRYDYWGQGTQVTVSS,low polyreactivity
8,QVQLVESGGGLVQAGGSLRLSCAASGFTFYRYTMGWSRQAPGKERELVAAISARGVSTYYADSVKGRFTISRDNAKNTVYLQMNCLKPEDTAVYYCYVSRYDSWGQGTQVTVSS,high polyreactivity
9,QVQLVESGGGLVQAGGSLRLSCAASGFTFYSNAMGWYRQAPGKERELVAAISFSGTRTYYADSVKGRFTISRDNAKNTVYLQMNSLKPEDTAVYYCNAVAYNYPRTYDYWGQGTQVTVSS,high polyreactivity
10,QVQLVESGGGLVQAGGSLRLSCAASGFTFYSNDMGWYRQAPGKERELVAAISYSGGSTYYADSVKGRFTISRDNAKNTVYLQMKRLNPEDTAVYYCAAGGLQQGDYWGQGTQVTVSS,low polyreactivity
11,QVQLVESGGGLVQAGGSLRLSCAASGFTFYSYAMGWYRQAPGKERELVAAISWSGTRTYYADSVKGRFTISRDNGKNTVYLQMTSLKPEVTAVYYCAGRGYRYGYGYWGQGTQVTVSS,high polyreactivity
12,QVQLVESGGGLVQAGGSLRLSCAASGFTFYSYAMGWYRQAPGKERELVATISSGGRTYYADSVKGRFTISRDNAKNTVYLQMNSLKPEDTAVYYCAARWRPHPFAPPGYYSWGQGTQVTVSS,high polyreactivity
13,QVQLVESGGGLVQAGGSLRLSCAASGFTFYTNAMGWYRQAPGHERELVARISRRGGSTYYADSVKGRFTISRDNAKNTVYLQMNSLKPEDTAVYYCNADGRAAVQYDYWGQGTQVTVSS,high polyreactivity
14,QVQLVESGGGLVQAGGSLRLSCAASGFTFYTNAMGWYRQAPGKERELVAAISKRGASTYYADSVKGRFTISRDNAKNTVYLQMNSLKPEDTAVYYCAASSRTHGSYDYWGQGTQVTVSS,high polyreactivity
15,QVQLVESGGGLVQAGGSLRLSCAASGFTFYTNAMGWYRQAPGKERELVAAITKSDGSTYYADSVKGRFTISRDNAKNTVYLQMNSLKPEDTAVYYCATERRYPYYGGIVIYDYWGQGTQVTVSS,low polyreactivity
16,QVQLVESGGGLVQAGGSLRLSCAASGFTFYTYAMGWYRQAPGKEMELVADISSGGSTNYADSVKGRFTISRDNAKNTVYLQMNSLKPEDTAVYYCSADYYFLDWYDYWGQGTQVTVSS,low polyreactivity
17,QVQLVESGGGLVQAGGSLRLSCAASGFTFYVNAMGWYRQATGKERELVAAISSRGGSTYYADSVKGRFTISRDNAKNTVYLQMNSLKPEDTAVYYCNRVRDQRRYEYWGQGTQVTVSS,high polyreactivity
18,QVQLVESGGGLVQAGGSLRLSCAASGFTFYVYARGWYRQAPGKERQLVAAISRSGGSTYYADSVKGSFTISRDNAKNTVYLQMQSLKPEDTAVYYCAVVQRYWYPGIVPYDYWGQGSQVTVSS,high polyreactivity
19,QVQLVESGGGLVQAGGSLRLSCAASGFTFYWYDMGWYRQAPGKEWELVATMSPGGGTNYADSVKGRFTISRDNAKNTVSLQMNSLKPEDTSVYYCAADGSAGYQWGYDFEGDYWGQGTQLTVSS,high polyreactivity
20,QVQLVESGGGLVQAGGSLRLSCAASGFTFYYAMGWYRQAPGKERELVAAISSSGARTYYADSVKGRFTISRDNAKYTVYLQMNSLKPEDTAVYYCAARRYYKFYYWGQGTQVTVSS,high polyreactivity
21,QVQLVESGGGLVQAGGSLRLSCAASGFTFYYNAMGWYRQAPGKERELVASIRSGGSTKYADSVKGRFTISRDNAKNTVYLQMNSLKPEDTAVYYCAKERYHISFFYQMVYWGQGTQVTVSS,low polyreactivity
22,QVQLVESGGGLVQAGGSLRLSCAASGFTFYYNAMGWYRQAPGKERELVASISSNGTSTYYADSVKGRFTISRDNAMNTVYLQMNSLKPEDTAVYYCNVDIFDPRTYDYWGQGTQVTVSS,low polyreactivity

row,Sequence,polyreactivity (PSR sort gate)
1,QVQLVESGGGLVQAGGSLRLSCAASGFTFYYNAMGWYRQAPGKERELVASISSNGTSTYYADSVKGRFTISRDNAMYTVYLQMNSLKPEDTAGYYCAADDVCVYWSSTHNWARGDYWGQGSQVTVSS,low polyreactivity
2,QVQLVESGGGLVQAGGSLRLSCAASGFTFYYYAMGWYRQAPGKERELVAAINWSGGTTYYADSVKGRFTISRDNAKNTVYLQMNSLKPEDTAVYYCAVSVFTVAPYRRYDYWGQGTQVTVSS,high polyreactivity
3,QVQLVESGGGLVQAGGSLRLSCAASGFTFYYYAMGWYRQAPGKERELVAAISIGGSTYYAGSVKGRFTISRHNEKNTVYLQMNSLKPEDTAVYYCNVVFTYWPPGTARYDYSGQGTQVTVSS,high polyreactivity
4,QVQLVESGGGLVQAGGSLRLSCAASGFTFYYYAMGWYRQAPGKERELVAAISSSGGSTSYADSVKGRFTISRDNAKNTVYLQMNSLKPEDTAVYYCAAVYWQSGRGKMCYWGQGTQVTVSS,high polyreactivity
5,QVQLVESGGGLVQAGGSLRLSCAASGFTFYYYAMGWYRQAPGKESELVAAITWSGDITSYADSVKGRFTISRDNAKNTVYLQMNSLKPEDTAVYYCAAYVYVPGYNAAYDYWGQGTQVTVSS,low polyreactivity
6,QVQLVESGGGLVQAGGSLRLSCAASGFTFYYYMGCYRQAPGKERELVAAITSGDTTYYADSVKGRFTISRDNAKNTVYLQMNSLKPEDTAVYYCNVDQAIYRWVPWEMDYWGQGTQVTVSS,low polyreactivity
7,QVQLVESGGGLVQAGGSLRLSCAASGFTIAYNAMGWYRQAPGKERDLVAAISSSGGRTYYADSVKGRFTISRDNAKNTVYFQMNSLKPEDTAVYYCATRPKVAYEYVYWGQGTQVTVSS,high polyreactivity
8,QVQLVESGGGLVQAGGSLRLSCAASGFTIDGYAMGWYRQAPGKERELVAAIRRGGRTKYADSVKGRFTISRDNAKNTVYLQMNSLKPEDTAVYYCAADRSRRGHLTHGYWGQGTQVTVSS,high polyreactivity
9,QVQLVESGGGLVQAGGSLRLSCAASGFTIFEDNAMGSYRQAPGKERELVAAITSGGSTNYADSVKGRFTISRDNAKNTVYLQMNSLKPEDTAVYYCAYDRVPLKTRFYYFPWGYDYWGQGTQVTVSS,low polyreactivity
10,QVQLVESGGGLVQAGGSLRLSCAASGFTIFLNAMGWYRQAPGKERELVAAITVSGSSTYYADSVKGRFTISRDNAKNTVYLQMNSLKPEDTAVYYCNAEIYSPYYTYDYWGQGTQVTVSS,low polyreactivity
11,QVQLVESGGGLVQAGGSLRLSCAASGFTILRYAMGWDRQAPGTERELVAAIDWSGGSTYYADSVKGRFTISRDNAKNTVYLQMNSLKPEDTAVYYCNARTINVPSRFNYWGQGTQVTVSS,low polyreactivity
12,QVQLVESGGGLVQAGGSLRLSCAASGFTIRRNAMGWYRQAPGKERELVAAISRSGGSTYADSVKGRFTISRDNAKNTVYLQMNSLKPEDTAVYYFASDHSYYRYTYTALIAEFYYWGQGTQVTVSS,low polyreactivity
13,QVQLVESGGGLVQAGGSLRLSCAASGFTIRRYAMGWYRQAPGKERELVAAITTGGSTYYADSVKGRFTISRDNAKNTVYLQMNSLKPEDTAVYYCATDTYPYPLYYSPGAYGYWGQGTQVTVSS,high polyreactivity
14,QVQLVESGGGLVQAGGSLRLSCAASGFTIRSYVMGWYRQAPGKERELVAAIRRSGGSTYYADSVKGRFTISRDNAKNTVYVQLNSLKPEDTAFYYCNAPHHRYDWGQGTQVTVSS,high polyreactivity
15,QVQLVESGGGLVQAGGSLRLSCAASGFTIRWYTMGWYRQAPGKERELVAAISRGGSTNYADSVKGRFTISRDNAKNTVYLQMNSLKPEDTAVYYCATSAPLVTSSGYGYWGQGTQVTVSS,high polyreactivity
16,QVQLVESGGGLVQAGGSLRLSCAASGFTISAYAMGWYRQAPGKERQLVASISRGGITNYADSVKGRFTISRDNAKNTVYLQMTSLKPEETAVYYCAAETRNHGILYDYWGQGTQVTVSS,high polyreactivity
17,QVQLVESGGGLVQAGGSLRLSCAASGFTISKYAMGWYRQAPGKERELVAVISSGGRTNYADSVKGRFTISRDNAKNTVYLQMNSLKPEDTAVDYCAAIGWRTRSRFEYWGQGTQVTVSS,high polyreactivity
18,QVQLVESGGGLVQAGGSLRLSCAASGFTISRYTMGWYRQAPGKERELVASITRRAGSTYYADSVKGRYTISRDNAQTTVYLQMYSLKPEDTAVYYCAAYGWTFSKVDLEMDYWGQGTQVTVSS,high polyreactivity
19,QVQLVESGGGLVQAGGSLRLSCAASGFTIVPYAMGWYRQAPGNERELVAAISRRGSRTYYADSVKGRFTISRDNAKNTVYLQMNSLKAEDTAVYYCAAKLSAVKAAYDYWGQGTQVTVSS,high polyreactivity
20,QVQLVESGGGLVQAGGSLRLSCAASGFTIVYYAMGWYRQAPGKERELVAVISSRGGSTYYADSVKGRFTISRDNAKNTVYLQMNSLKPEDTAVYYCAARGRGQPFVRYDYWGQGTQVTVSS,high polyreactivity
21,QVQLVESGGGLVQAGGSLRLSCAASGFTIWDYAMGWYRQAPGKERELVAAISRRGGTTYYADSVKGRFTISRDNAKNTVYLQMNSLKPEETAVYYCATYSYTWLNYYWGQGTQVTVSS,high polyreactivity
